Assay results taken from paper PMC9059122.

Tests used:
[1] = target: human melanocortin-1 receptor (human) (UniProt Q01726)
[2] = target: human melanocortin-3 receptor (human) (UniProt P41968)
[3] = target: human melanocortin-5 receptor (human) (UniProt P33032)
Chain of human melanocortin-5 receptor (human) (P33032 whole entry): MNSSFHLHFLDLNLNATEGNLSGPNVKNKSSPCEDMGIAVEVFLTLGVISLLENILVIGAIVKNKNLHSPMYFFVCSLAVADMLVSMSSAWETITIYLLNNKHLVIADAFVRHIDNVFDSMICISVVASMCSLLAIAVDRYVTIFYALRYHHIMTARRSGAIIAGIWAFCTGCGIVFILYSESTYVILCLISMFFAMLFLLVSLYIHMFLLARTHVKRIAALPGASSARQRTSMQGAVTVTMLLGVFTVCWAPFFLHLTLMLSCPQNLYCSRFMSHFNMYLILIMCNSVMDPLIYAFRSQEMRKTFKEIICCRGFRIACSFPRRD

Chain of human melanocortin-1 receptor (human) (Q01726 whole entry): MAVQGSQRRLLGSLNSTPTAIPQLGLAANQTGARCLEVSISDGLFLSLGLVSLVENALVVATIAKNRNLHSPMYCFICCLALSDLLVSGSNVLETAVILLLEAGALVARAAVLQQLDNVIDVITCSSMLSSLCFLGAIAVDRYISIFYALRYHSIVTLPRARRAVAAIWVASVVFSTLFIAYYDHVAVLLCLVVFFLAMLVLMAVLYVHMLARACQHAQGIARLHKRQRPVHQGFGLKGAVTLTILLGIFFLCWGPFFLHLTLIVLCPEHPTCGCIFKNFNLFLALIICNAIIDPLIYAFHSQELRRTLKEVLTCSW
Chain of human melanocortin-3 receptor (human) (P41968 whole entry): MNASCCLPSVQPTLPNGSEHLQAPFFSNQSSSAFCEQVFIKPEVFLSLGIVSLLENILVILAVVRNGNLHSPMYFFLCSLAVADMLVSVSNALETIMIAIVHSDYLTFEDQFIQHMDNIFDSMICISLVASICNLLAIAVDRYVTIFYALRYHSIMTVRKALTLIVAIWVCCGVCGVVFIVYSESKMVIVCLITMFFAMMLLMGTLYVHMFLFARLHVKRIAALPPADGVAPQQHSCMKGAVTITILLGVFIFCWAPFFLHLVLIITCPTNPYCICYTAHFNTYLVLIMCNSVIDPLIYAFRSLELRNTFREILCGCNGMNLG

| agonist potency (EC50), cAMP split-luciferase sensor dynamic assay [1] | agonist potency (EC50), cAMP split-luciferase sensor dynamic assay [2] | agonist potency (EC50), cAMP split-luciferase sensor dynamic assay [3] | Substance |
| --- | --- | --- | --- |
| 0.16 nM | 6.2 nM | 3.8 nM | analogue 11 (Tyr-Val-Nle-Gly-His-D-Nal(2′)-Arg-Trp-Asp-Arg-Phe-Gly-NH2) (peptide) |
| 1.2 nM |  | 4.1 nM | analogue 13 (Tyr-Val-Nle-Gly-Pro-D-Nal(2′)-Arg-Trp-Asp-Arg-Phe-Gly-NH2) (peptide) |
